Reference: patent US20170369571A1 (AbbVie / Abbott, published 2017)
Each block holds one molecule with its values, some of them ahead of it.

What was measured:
[1] = target: human SEZ6 on patient-derived NTX tumor cells (human) (UniProt Q53EL9); assay: flow cytometry, LU117 NTX tumor cells, dot plot CD324 against MOPC isotype control, gate at 10^3
[2] = target: human SEZ6 on patient-derived NTX tumor cells (human) (UniProt Q53EL9); assay: flow cytometry, LU86 NTX tumor cells, dot plot CD324 against MOPC isotype control
[3] = target: human SEZ6 on patient-derived NTX tumor cells (human) (UniProt Q53EL9); assay: flow cytometry, LU64 NTX tumor cells, dot plot CD324 against MOPC isotype control, gate at 10^3
[4] = target: T1, recombinant rat SEZ6 ECD with 9-Histidine tag (rat, UniProt Q7TSK2 20-922 (mouse entry)); assay: assay not given
T1 construct: also called rSEZ6-ECD-His; rat recombinant SEZ6-His
T1 chain: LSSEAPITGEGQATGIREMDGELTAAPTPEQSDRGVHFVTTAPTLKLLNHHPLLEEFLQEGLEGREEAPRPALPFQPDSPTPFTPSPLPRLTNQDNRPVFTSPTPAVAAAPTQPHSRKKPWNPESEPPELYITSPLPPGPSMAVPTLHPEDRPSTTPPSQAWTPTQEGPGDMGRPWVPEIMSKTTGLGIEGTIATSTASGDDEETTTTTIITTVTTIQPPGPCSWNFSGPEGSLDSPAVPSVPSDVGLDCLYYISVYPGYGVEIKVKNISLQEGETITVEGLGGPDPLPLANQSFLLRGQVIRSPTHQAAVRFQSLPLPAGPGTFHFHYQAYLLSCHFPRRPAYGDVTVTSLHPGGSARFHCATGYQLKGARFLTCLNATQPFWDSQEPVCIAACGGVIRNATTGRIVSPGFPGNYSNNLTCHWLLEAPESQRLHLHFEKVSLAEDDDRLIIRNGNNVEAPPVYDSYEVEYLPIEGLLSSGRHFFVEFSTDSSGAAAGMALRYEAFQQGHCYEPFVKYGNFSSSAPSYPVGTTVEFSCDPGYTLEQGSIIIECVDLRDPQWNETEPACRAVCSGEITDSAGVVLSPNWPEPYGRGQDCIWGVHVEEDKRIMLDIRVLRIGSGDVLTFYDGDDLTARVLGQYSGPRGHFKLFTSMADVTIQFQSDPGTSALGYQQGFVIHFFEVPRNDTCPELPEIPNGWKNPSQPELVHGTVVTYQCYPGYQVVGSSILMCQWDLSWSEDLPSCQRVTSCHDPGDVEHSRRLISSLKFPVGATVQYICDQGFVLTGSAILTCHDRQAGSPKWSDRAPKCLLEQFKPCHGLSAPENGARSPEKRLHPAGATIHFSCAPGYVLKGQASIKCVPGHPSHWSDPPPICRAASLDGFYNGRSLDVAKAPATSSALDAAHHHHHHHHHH

[5] = target: T2, cynomolgus SEZ6 extracellular domain displayed on yeast (cynomolgus, UniProt Q53EL9 23-925 (human entry)); assay: assay not given
T2 construct: also called cSEZ6; cynomolgus SEZ6 ECD
T2 chain: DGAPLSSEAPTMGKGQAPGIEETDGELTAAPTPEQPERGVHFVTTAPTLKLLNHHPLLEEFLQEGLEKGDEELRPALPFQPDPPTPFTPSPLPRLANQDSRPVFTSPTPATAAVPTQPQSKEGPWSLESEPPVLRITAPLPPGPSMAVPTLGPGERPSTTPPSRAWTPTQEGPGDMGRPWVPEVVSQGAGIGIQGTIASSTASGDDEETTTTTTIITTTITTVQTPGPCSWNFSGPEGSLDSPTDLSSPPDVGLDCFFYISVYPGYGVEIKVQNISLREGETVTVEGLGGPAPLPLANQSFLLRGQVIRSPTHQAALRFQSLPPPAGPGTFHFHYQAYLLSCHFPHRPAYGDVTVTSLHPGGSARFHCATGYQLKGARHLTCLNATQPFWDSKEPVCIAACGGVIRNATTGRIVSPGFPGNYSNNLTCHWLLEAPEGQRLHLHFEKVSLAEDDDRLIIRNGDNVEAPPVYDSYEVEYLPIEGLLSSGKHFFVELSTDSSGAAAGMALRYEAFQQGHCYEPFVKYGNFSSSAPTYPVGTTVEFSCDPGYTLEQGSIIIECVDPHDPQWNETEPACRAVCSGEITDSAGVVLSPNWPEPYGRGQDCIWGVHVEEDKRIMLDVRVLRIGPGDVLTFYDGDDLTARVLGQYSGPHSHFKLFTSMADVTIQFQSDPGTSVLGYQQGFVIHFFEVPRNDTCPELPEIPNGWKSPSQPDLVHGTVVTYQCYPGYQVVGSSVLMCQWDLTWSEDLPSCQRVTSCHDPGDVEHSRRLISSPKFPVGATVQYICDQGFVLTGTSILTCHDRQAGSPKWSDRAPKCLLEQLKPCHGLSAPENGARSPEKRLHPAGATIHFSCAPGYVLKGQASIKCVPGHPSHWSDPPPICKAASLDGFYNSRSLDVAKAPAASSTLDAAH

[6] = target: human SEZ6 on patient-derived NTX tumor cells (human) (UniProt Q53EL9); assay: flow cytometry, LU64 NTX tumor cells, dot plot CD324 against SC17.42, gate at 10^3
[7] = target: human SEZ6 on patient-derived NTX tumor cells (human) (UniProt Q53EL9); assay: flow cytometry on LU100 NTX tumor cells; FMO (MFI) of the same line 289
[8] = target: human SEZ6 overexpressed on HEK-293T cells (human, UniProt Q53EL9 20-994); assay: cell-based or functional assay

% of cells CD324+ and MOPC+ (upper right quadrant) [1]: 0.347%
% of cells CD324- and MOPC+ (lower right quadrant) [1]: 0.05%
% of cells CD324+ and MOPC+ (upper right quadrant) [2]: 0.483%
% of cells CD324- and MOPC+ (lower right quadrant) [2]: 0.014%
% of cells CD324+ and MOPC+ (upper right quadrant) [3]: 0.597%
Molecule: MOPC (antibody)

binding result [4]: no binding
binding result [5]: no binding
B1: SC17.46 (antibody, V domains shown)
VH: QVQLQQPGAELVKPGASMKLSCKASGYTFTSYWINWVKQRPGQGLEWIGNIFPDTTTTNYNEKFKSKATLTVDTSSSTAYMQLSSLTSDDSAVYYCAREYYDGTYDAMDYWGQGTSVTVS
VL: SFVMTQTPKFLLVSAGDRVTITCKASQSVNNDVAWYQQKPGQSPKLLIYYASNRYTGVPDRFTGSGYGTDFTFTISTVQAEDLAVYFCQQDYSSPRTFGGGTKLEIK
notes: murine mAb

% of cells CD324+ and SC17.42+ (upper right quadrant) [6]: 27.7%
% of cells CD324- and SC17.42+ (lower right quadrant) [6]: 0.637%
Tumor (MFI) [7]: 1400
B2: SC17.42 (antibody, from a related filing, V domains shown)
VH: DVKLVESGGGLVRPGGSLKLSCAASGFTFSRYTMSWVRQTPEKRLEWAATINSGGSNTYYPDSVKGRFTISRDNAKNTLFLQMSSLKSEDTAMYYCTNGNHWGQGTTLTVSS
VL: ENVLTQSPAIMSASPGEKVTMTCSASSSVNYMYWYQQKSSTSPKLWIYDTSKLTSGVPGRFSGSGSGNSYSLTISNMEAEDVATYYCFQGSGYPLTFGSGTKLEIK

B3: hSC17.17-ADC1 (antibody, V domains shown)
VH: QVQLVQSGAEVKKPGASVKVSCKASGYTFTDYNMHWVRQAPGQGLEWMGEINPNIGGTGYNQKFKGRVTMTRDTSISTAYMELSRLRSDDTAVYYCARTYSYYSYEFAYWGQGTLVTVSS
VL: EIVLTQSPATLSLSPGERATLSCSASSSVSYMHWYQQKPGQAPRLLIYDTSKLPSGIPARFSGSGSGTDFTLTISSLEPEDFAVYYCQQWSSTPPTFGQGTKLEIK
modifications: PBD dimer (ADC1) through a maleimido linker on reduced Cys residues
in vitro cytotoxicity, IC50 [8]: 11 nM
